# The DeepSol protein solubility set
# Assay: soluble on expression in E. coli; label from the status in PepcDB or PDB records
row,Sequence,soluble on expression in E. coli
1,MSPSQDPSLENYRAIADGIATLFFPHAEVVLHDLRSQRVDYIANNLSKREVGDDSALEDMLEGDSDERNIGPYEKLNWDGQKIRSVSTVLRDSAGQPLAVLCINLNISLFESAKAALDLFLSPSKLIPQPDALFRDDWQERINTFLHGWLRQRQLGLNLLTREHKRELVLALHAEGAFKGKSAANYVANVLNMGRATVYKHLKELKEGGD,not soluble
2,KKIIHELLDDILFFETAPTIHKVILHGKNRQVEFYGKLKSIEKMLDESFYRCHRSYIVNKKNIHELDTTKGVVKMSNGENCYASSKLIKSLSL,not soluble
3,DIALTQPASVSGSPGQSITISCTGTSSDVGSNNYVSWYQQHPGKAPKLMIYGGSNRPSGVSNRFSGSKSGNTASLTISGLQAEDEADYYCRSWDSNLSYSVFGGGTKLTVLGQPKAAPSVTLFPPSSEELQANKATLVCLISDFYPGAVTVAWKADSSPVKAGVETTTPSKQSNNKYAASSYLSLTPEQWKSHRSYSCQVTHEGSTVEKTVAPTEA,soluble
4,MSLALVAEKLSEQWRAELDSRGLDAAPMADWMTVCRRLSLALAGTGLSLEEIRSLQRLPEADRVETHRERLLNSERFHHYWAERTARYLVGADEGPFIFYRGRRFRSWLTEQYAKNTRYDELVRMLITAEGVWTDRPEVNFHTVTFDSGDNAPDPIRLAARTTRAFLGVRIDCLQCHDDFLGNVSLGDASWIMCGVGDATMQAAAEGDAKYVLREGTQEDFHSLAAFFTAATSEGVQGLKDKRANYEYQYLYADETVPVEPNVPFLRELLPPRPENRQDDSSDDDSTDTTDESASDEPSDAPEPLELPRYLSDRERLAYWLTHTENKPAARAAVTRVWTLLFGQPPAIETDYGFQVGEVDNLPLDSPPSPLIETLTEAFIESDFNIRKLIRCITDSPAFRVSSRADFDVTEQHELAMAVFPVTHLRSEQVAGAAIQAGRIKTINRDSSFLVQLQQFGSLNDFLKRYGDLGEDEFTQQPVTITQRLVMLNGKLINETASPNPILNASSHIEMFAKDDEDVVRTLYLTVLNREPSERELEHFVKRLTAESREQNDPPTSRKQEITDLTWILLNSSEFAWNHEGHHHHHH,not soluble
5,MSLAIVAKRTIMSLFSDVDDVYSHQVRIVLAEKGVNVEILAVKQDEPGADLLSINPYGTVPTLIDRELVLYEARIIMEYLDERFPHPPLLPVYPVARAEARKMMHRIEQDWYYLMNAILREESVEQARANLLESLTSLDPVFADKPYFLSDEFSLLDCALAPLLWRLPKLGLEIAPNFKGIISYMQRVFKRDSFQTSLTDAERQIRAAEGHHHHHH,soluble
6,ASFIEQQVGGSLNEASLAHHIEQVLATNGNLFIGNSLFVRLVDALCKLPEGYPVYTNRGASGIDGLIATMAGIAKASGQPTVGVVGDISALHDLNSISLLSKINHPSILFVINNSGGAIFDMLPVEARVKEQFYRLSHNYEFSQVAAMFGIEYIRPFTWADLKAKLKLAYGRKSATIVEIKVNDQDG,not soluble
7,MGLCVSKGSTASSPQHYAVRYTEQVTPSPSPSVASTSPSLHDSTAIGSPLARRSVLLPHEVQQAAYQLAMRLNGRAIEDASDRKRLVDATATVHETRLALHRGRGKVDSDLRLSNGRSATYSSLSYCLGEDDENLLAGSALAAGAGNCDHNAAINTRRHAVRMEDGGQMMTVRDYEQTHLYALYQPPNSAEADESTVVLDSWGDGPAVLLRDSHWAESYGTSTHVIERFDKPDATDALARTNAFRAEIENPQTALHANARELETAFLANPAPGDIFSAMPVIAPHLAESTRRRLQECSPRTRNVLAADAARDAYGLDDAQANSPRTTKAILKEAKRLDALGRPPLSW,not soluble
8,MSDLPRKAVTRTAKLAALPLGFAGRATWGLGKRIVGESAEIVGQQLQQRTAEQLFKVLGELKGGAMKFGQALSVFESALPEEVAGPYRAALTKLQEAAPPMPTRTVHSVLAERLGEDWQELFLEFEDKPAAAASIGQVHRGVWQDGREVAVKVQYPGAGEALLSDLNQLSRFARLLGPLVPGMDIKPLITELKDRVSEELDYDLEAQAQRTHAEVFDDDPDIVVPDVIHQCEQVLITEWIDGIPMSEIISNGTQEQRDRAGQLLAHFLFSGPARTGLLHADPHPGNFRLLPGGPRGEDDWRLGVLDFGTVDRLPGGLPEPIGEALRMTLDGEAEAVYEMLCAEGFVKESIELAPDAVLEYLLPIIEPARVDAFTFTRGWMRSQAARIGDPRSPAYQLAKQLNLPPAYLLIHRVTLSTIGVLCQLGATVRLRDELEEWLVGFVAEGEAEVEEGEEADEDVYETEGTAAEALEHHHHHH,not soluble
9,MAPQMEKVSEELILPSSPTPQSLKCYKISHLDQLLLTCHIPFILFYPNPLDSNLDPAQTSQHLKQSLSKVLTHFYPLAGRINVNSSVDCNDSGVPFVEARVQAQLSQAIQNVVELEKLDQYLPSAAYPGGKIEVNEDVPLAVKISFFECGGTAIGVNLSHKIADVLSLATFLNAWTATCRGETEIVLPNFDLAARHFPPVDNTPSPELVPDENVVMKRFVFDKEKIGALRAQASSASEEKNFSRVQLVVAYIWKHVIDVTRAKYGAKNKFVVVQAVNLRSRMNPPLPHYAMGNIATLLFAAVDAEWDKDFPDLIGPLRTSLEKTEDDHNHELLKGMTCLYELEPQELLSFTSWCRLGFYDLDFGWGKPLSACTTTFPKRNAALLMDTRSGDGVEAWLPMAEDEMAMLPVELLSLVDSDFSK,soluble
10,MGHHHHHHSHSHTIRDLKYTIENPRHFVDSHHQKPVNAIIEHVRDGSVVRALLLPDYYLVTVMLSGIKCPTFRREADGSETPEPFAAEAKFFTESRLLQRDVQIILESCHNQNILGTILHPNGNITELLLKEGFARCVDWSIAVYTRGAEKLRAAERFAKERRLRIWRDYVAPTANLDQK,not soluble
11,GALPSHNKASFTDEEDEFILDVVRKNPTRRTTHTLYDEISHYVPNHTGNSIRHRFRVYLSKRLEYVYEVDKFGKLVRDDDGNLIKTKVLPPSIKRKFSADEDYTLAIAVKKQFYRDLFQIDPDTGRSLITDEDTPTAIARRNMTMDPNHVPGSEPNFAAYRTQSRRGPIAREFFKHFAEEHAAHTENAWRDRFRKFLLAYGIDDYISYYEAEKAQNREPEPMKNLTNRPKRPGVPTPGNYNSAAKR,soluble
12,MSLDVKNLAKWKKVPPVSDRIANTFVALKMLREVDEEHNPVLFSKAHRDNIYTVIDISHESPVYNPASLEAGGIHYQKYPTVSKIPPTPDEVRDFIALVDRLQKEITEKMEKSNTSGAARLRPVVGVHCHYGFNRTGFLIVSYLIERCGFGVQEAIDEFEKRRPPGIRHAHFIDTLFVRYCVGLKRAPTEGHHHHHH,not soluble
13,GPGSMLVSYLRLQADRRTRHHMMVDGQINPREWFNWHPKEYQPWYFDRHKFLYEQRQYAQFHHLLCHQVYLKDMLHLMRYPEPYTHIIDCRTSTQKMHRWVPHSLWLPRDEVEYALQLSADEFLDMYGFRKPDKSDDVILLSHNGIYSEQAGWEWKKQFFQHVYNYRGGTNELFGESYSDMNVSDVLSPWKGPFPQSGVFVDKWSKRKVLTRTGPFDRQYEMQDFALPDLELEKARHPEEGPRQNMPFGLQ,not soluble
14,GPGSMIPGLPPAFDVECNRMEDVFASVKSRTVGKDGNLLSPEESWVQRELQYYENLYTEQQELTVCLVTFNVACKKPPANLAALISLKMAEDTNRPVDLIMVSLQEVDMSASAMLKEETEASTPWVVGLHAAVGADSRSPSNTPYFAFPPKQLVGLLLCVYLRRQLLPYMQEMSVATVATGALGSMGNKGAIGLRLVLHRTSLCLINVHLAAGQSNVVKT,not soluble
15,MGSDKIHHHHHHMKTELVQVETEDSIVLHGAFYEAEQGKPAIIIMHGAAMNFYTGLGRFLPEILSEHGFSCLSANNRGHDFGTAPDHDRKPVIGLMRDIFKDCVKDVQALLHFLRSRGYPRVILLGHSQAIPKLLYAQNQLQFPEVQGMILVSPPPSVSKMMRYLTTDNYYERGLFKANELGEMGMYDQLIVLRGRGTMPWIFTVSTFLDFYGPNTPADTEELVKEIYCPMLLIRGSMDFPPVSMELMHNMKQNAAVPESVTIREINEASHFYSGQEKQLGNTILEWLDSY,not soluble
16,MMEDGAEGEIGDMLSMCNKHPFFDDDDSERFVILYKICTVFDEPVEGKQPSSAVIVYEELAKSGGYCCRPSKMEESYVKVDQVVQEMAKITSKCAIHLSSHALKNTIQIVRTAFSGEYTQNDKDGNVPEGNEVKFDGDETVMKTTVNCEKLVEDINEFMEEDRQMYGALEIQIMEESERNIDGYAYFSFLKFVPCGNIHLRIPPLEGSCTKEVINEVIETIMRNFWNYCGDS,not soluble
17,MGSDKIHHHHHHMSSVTLSGRGTLGDRQVYRLGYGAMQLAGPGVFGPPKDPEEAVRVLQAAVEAGINHIDTSDFYGPHVTNQLIRKALHPYPDDLCIVTKVSARRDEKGNWLPAMSPAELTQAVEDNLRHLGLEVLEVVNLRSMLSPHGPVEGSLEAPLATLLELKERGLIRHIGLSNVTAKQVADAQKMTPIVCVQNLYNVAHRADDALVDALAAQHIAWVPFFPLGGFTPLQAQELNEVAASLEATPMQVALAWLLQRAPNILLIPGTSSRTHLAENIAAAELVLPAEALRTLDNIATAARR,not soluble
18,MGSDKIHHHHHHMTNQLLSEQWFEHQAKVTEAIGRPGFAASLFAALGVIRPIQATTVYLYPHDGMPCALFEQDDKAPWQPEGNVSRYLSGFYLLDPFYGACVEQVESGCYGLFEVAPDHFEVSEYYQSFYRHSHLEDELNYILQVAPGQSLAVSLAFTDKLDGQSRTRFGLITPWVLAVLGKHFAGLDSRAGRFENILEQRIHAALNNFGSSLLTERECRIAQLILRGHSTKSLAERLGVSEDTIKSHRKNVYAKLDIGTQSELFSLFIDALANAQGVLGKDPLESYMGKLR,not soluble
19,MTVKVCVCGGGNGAHTLSGLAASRDGVEVRVLTLFADEAERWTKALGADELTVIVNEKDGTQTEVKSRPKVITKDPEIAISGADVVILTVPAFAHEGYFQAMAPYVQDSALIVGLPSQAGFEFQCRDILGDKAAAVSMMSFETLPWACRIKEFGRKVEVLGTKSVLAASLIKGTAKTVDPLSTLQMLHGAEPVFRLAKHFLEMLIMSYSFVHPAILFGRWGSWDGKPVPEAPLFYQGIDQATADMLTACSNECKDVANAIMAACPGNDLSDVKDIYQWYLEYYHEDIQDDHDLYHAITTNKSYKGLVHPVKAVDGGVAPDFGNRYLTEDIPMGMIVFKGVAIAAGVAIPSNDKLIMWAQEKIGKEYLVDGALTGKDVATTRCPQRYGFNTLDAILTGKKHHHHH,soluble
20,MRHVISVLVQDHPRVLNRITGLFARRGFNLESLAVGTTHQPGLSRICLVVSGDDRTLEQVEKQLNRLIEVLKVTDHTEPHVERELCLVKVHVAGLEERLAVKDIQEAFRARVVDVAQKSLILELTGDTQKVNSFIEALRPYGILEVMRTGAVAMSRGDRVLKVREKKEAV,soluble
21,GPSLSGELHIFCSVTAAYSHLPPILDRFRAEHPSVEIKLTTGDAADAMEKVVTGEADLAIAGKPETLPGAVAFSMLENLAVVLIAPALPCPVRNQVSADKPDWSTVPFIMADQGPVRRRIELWFRRNKISNPMIYATVGGHEAMV,not soluble
22,MSLKLVKLETFSTEFVCFVRATAEDGAQGWGQVAPYYADITAQVLHRQVAPYALGMACEDIDAMLDIVRDREHKFPGSYLRRAMGGVDTALWDMHGRRAGKPVCVLIGGTPGPVRAYGSSMKRDITPRDEAARLVRLRDEQGFDAFKFRIGAEVGRDRDEWPGRTEEIVPTMRRAMGDDVALLVDANSCYSPARAIEVGRMLEQHGISHYEEPCPYWEFAQTKEVTDTLDLDITGGEQDCLMERWQTMIADRVVDVLQPDICYLGGLSRTLRVARMAEAAGMPITPHAANLSMVTLFTMHLLRAIPNAGKYLEFSIEGLDYYPWQQGLFTSDPYRIEEGHATVTDAPGWGVDVNPDWLARSEGHHHHHH,not soluble
